Test results as given in doi:10.1101/2020.05.08.085126.
Like-named read-outs stand apart in the source and are kept apart here.

T1: His-MBP-STF-HD (Medicago truncatula, UniProt G0ZGT3 85-190)
T1 sequence: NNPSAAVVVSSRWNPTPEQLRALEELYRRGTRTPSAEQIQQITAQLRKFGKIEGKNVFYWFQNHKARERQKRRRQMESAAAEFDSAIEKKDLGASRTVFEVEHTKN


What was measured:
His-MBP-STF-HD [1] = molecular target: T1, His-MBP-STF-HD; experiment: EMSA
His-MBP-STF-HD [2] = molecular target: T1, His-MBP-STF-HD; experiment: EMSA; remark: listed apart in the source

Row | Binder | binding result (His-MBP-STF-HD [1]) | binding result (His-MBP-STF-HD [2])
1 | MtLOB39 promoter P2 (dsDNA) DNA 1: TATTCAAATTAATGATTTATTCAATTTT DNA 2: AAAATTGAATAAATCATTAATTTGAATA | binds | –
2 | MtLOB39 promoter P1 (dsDNA) DNA 1: GACCAATCAATGTTGAAAATGTAGAATATT DNA 2: AATATTCTACATTTTCAACATTGATTGGTC | binds | –
3 | MtLOB38 promoter P2 (dsDNA) DNA 1: TCAAATTTCAAATAGAATAAATTTGAAAGTGATAAATGATTAATTATTTT DNA 2: AAAATAATTAATCATTTATCACTTTCAAATTTATTCTATTTGAAATTTGA | – | binds
4 | MtLOB39 promoter P3 (dsDNA) DNA 1: CTTTCAATTATACATTTTAATTAATATTAATTT DNA 2: AAATTAATATTAATTAAAATGTATAATTGAAAG | binds | –
5 | MtLOB38 promoter P1 (dsDNA) DNA 1: AAAAAAAAATTATATATTAATAGTAATAAATAATAAAAAATAAT DNA 2: ATTATTTTTTATTATTTATTACTATTAATATATAATTTTTTTTT | – | binds
